This note sets out measurements from US20250230211A1 (NANTCELL, published 2025).

One assay concerns the target T1, human CTLA4 (human, UniProt P16410 36-161).
T1 sequence (looked up): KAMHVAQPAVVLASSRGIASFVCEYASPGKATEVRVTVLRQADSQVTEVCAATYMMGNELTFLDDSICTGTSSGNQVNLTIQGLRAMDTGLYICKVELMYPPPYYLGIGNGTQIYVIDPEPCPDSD
Put plainly: SPR, antibody captured by anti-human IgG Fc, analyte by OneStep injection at 40 nM and 20 nM. As for the experimental part: (§1) Surface plasmon resonance (SPR) studies were conducted with the purified fusion proteins to assess their binding affinities to relevant targets. The SPR kinetic assay was performed by immobilizing rabbit α-human IgG Fc antibodies (Thermo) on a PCH sensor (Sartorius) as the capture molecule. All molecules of interest were then captured on the sensor surface by α-IgG1-Fc and Fc domain interaction. Binding kinetics against IL-2Rβ, human CTLA4, and murine CTLA4 were determined by OneStep injection at 40 nM and 20 nM of each analyte. […] The αCTLA4-scFv has higher affinity to CTLA4 than when the binding domain is in IgG form.

The target in the next assay is T2, murine CTLA4 (murine, UniProt P09793 36-161, limits assumed).
T2 construct: also called Mouse CTLA4
Described as above. The protocol: as §1

B1: αCTLA4-7 (antibody, human IgG1, kappa, V domains shown)
VH: EVQLVESGGGLVQPGGSLRLSCAASGFTFTSYSMHWVRQAPGKGLEWVSGISGSGRSTSYADSVKGRFTISRDNSKNTLYLQMNSLRAEDTAVYYCARDLMAFNLVRAGGFDVWGQGTLVTVSS
VL: DIQMTQSPSSLSASVGDRVTITCQASQDISNYLNWYQQKPGKAPKLLIYDASNLETGVPSRFSGSGSGTDFTFTISSLQPEDIATYYCQQGDAWPWTFGQGTKVEIKR
Broadly, the Kd is the equilibrium constant for the complex coming apart. With B1, the results for the dissociation constant (Kd) in the assay with human CTLA4 and in the assay with murine CTLA4 were 1.1 to 1.6 nM and 0.13 to 2.1 nM, respectively.
